According to patent US20110318339A1 (FABRUS, published 2011):
Numbering of substitutions follows the chain as printed. Numbers in names are those of the source.

B1: Fab VH1-46_IGHD6-6*01_IGHJ1*01 S102A/S103P/S104F/H111F I51N/N52L/S54T/G56H & L6_IGKJ1*01 (Fab, V domains shown)
VH: QVQLVQSGAEVKKPGASVKVSCKASGYTFTSYYMHWVRQAPGQGLEWMGINLPTGHSTSYAQKFQGRVTMTRDTSTSTVYMELSSLRSEDTAVYYCAREEYAPFSAEYFQFWGQGTLVTVSS
VL: not shown
notes: Fab made in E. coli: VH on CH1 with His6 and Flag tags (Plasmid A), VL on kappa CL (Plasmid C); also called H: APFF NLTH & L: wt
B2: Fab VH1-46_IGHD6-6*01_IGHJ1*01 S102A/S103P/S104F/H111F I51T/N52L/P53A/S54T/G56H & L6_IGKJ1*01 (Fab, V domains shown)
VH: B1 VH with N51T, P53A
VL: not shown
notes: Fab made in E. coli: VH on CH1 with His6 and Flag tags (Plasmid A), VL on kappa CL (Plasmid C); also called H: APFF TLATH & L: wt
B3: Fab VH1-46_IGHD6-6*01_IGHJ1*01 S102A/S103P/S104F/H111F N52L/S54T/G56H & L6_IGKJ1*01 (Fab, V domains shown)
VH: B1 VH with N51I
VL: not shown
notes: Fab made in E. coli: VH on CH1 with His6 and Flag tags (Plasmid A), VL on kappa CL (Plasmid C); also called H: APFF LTH & L: wt
B4: Fab VH1-46_IGHD6-6*01_IGHJ1*01 S102A/S103P/S104F/H111F I51E/N52L/S54T/G56H & L6_IGKJ1*01 (Fab, V domains shown)
VH: B1 VH with N51E
VL: not shown
notes: Fab made in E. coli: VH on CH1 with His6 and Flag tags (Plasmid A), VL on kappa CL (Plasmid C); also called H: APFF ELTH & L: wt
B5: Fab VH1-46_IGHD6-6*01_IGHJ1*01 S102A/S103P/S104F/H111F I51T/N52V & L6_IGKJ1*01 (Fab, V domains shown)
VH: B1 VH with N51T, L52V, T54S, H56G
VL: not shown
notes: Fab made in E. coli: VH on CH1 with His6 and Flag tags (Plasmid A), VL on kappa CL (Plasmid C); also called H: APFF TV & L: wt; APFF I51T/N52V
B6: Fab VH1-46_IGHD6-6*01_IGHJ1*01 S102A/S103P/S104F/H111F I51V/N52L/S54T/G56H & L6_IGKJ1*01 (Fab, V domains shown)
VH: B1 VH with N51V
VL: not shown
notes: Fab made in E. coli: VH on CH1 with His6 and Flag tags (Plasmid A), VL on kappa CL (Plasmid C); also called H: APFF VLTH & L: wt
B7: Fab VH1-46_IGHD6-6*01_IGHJ1*01 S102A/S103P/S104F/H111F & L6_IGKJ1*01 S28N/S30D/S31H S52L (Fab, V domains shown)
VH: B1 VH with N51I, L52N, T54S, H56G
VL: EIVLTQSPATLSLSPGERATLSCRASQNVDHYLAWYQQKPGQAPRLLIYDALNRATGIPARFSGSGSGTDFTLTISSLEPEDFAVYYCQQRSNWPPWTFGQGTKVEIKR
notes: Fab made in E. coli: VH on CH1 with His6 and Flag tags (Plasmid A), VL on kappa CL (Plasmid C); also called H: APFF & L: NDH S52L
B8: Fab VH1-46_IGHD6-6*01_IGHJ1*01 S102A/S103P/S104F/H111F & L6_IGKJ1*01 S28N/S30D/S31H A55S (Fab, V domains shown)
VH: B1 VH with N51I, L52N, T54S, H56G
VL: B7 VL with L52S, A55S
notes: Fab made in E. coli: VH on CH1 with His6 and Flag tags (Plasmid A), VL on kappa CL (Plasmid C); also called H: APFF & L: NDH A55S
B9: Fab VH1-46_IGHD6-6*01_IGHJ1*01 S102A/S103P/S104F/H111F & L6_IGKJ1*01 S28N/S30D/S31H A55G (Fab, V domains shown)
VH: B1 VH with N51I, L52N, T54S, H56G
VL: B7 VL with L52S, A55G
notes: Fab made in E. coli: VH on CH1 with His6 and Flag tags (Plasmid A), VL on kappa CL (Plasmid C); also called H: APFF & L: NDH A55G
B10: Fab VH1-46_IGHD6-6*01_IGHJ1*01 S102A/S103P/S104F/H111F & L6_IGKJ1*01 S28N/S30D/S31H S52T (Fab, V domains shown)
VH: B1 VH with N51I, L52N, T54S, H56G
VL: B7 VL with L52T
notes: Fab made in E. coli: VH on CH1 with His6 and Flag tags (Plasmid A), VL on kappa CL (Plasmid C); also called H: APFF & L: NDH S52T

What follows are binders tested against T1, recombinant human DLL4 (Cat# 1506-D4/CF, R&D Systems) (human, UniProt Q9NR61 27-529) (assay: ELISA, DLL4 coated, Fab 0.16 nM).
T1 construct: Bought protein; also called hDLL4; rHuman DLL4
Description: (§1) The plate was blocked by adding 1% BSA in Tris-buffered Saline Tween (TBST) and incubating for 1 hour at room temperature followed by washing 2 times with 150 μl TBST. A Fab antibody was serially diluted in 1% BSA in PBS. A 50 μl aliquot of each serial dilution was added, in triplicate, to each well and the plate was incubated for 1 hour at room temperature followed by washing 2 times with TBST. 50 μl of either goat anti-human kappa HRP conjugated secondary antibody (Cat # A7164-1 mL, Sigma-Aldrich) or goat anti-human lambda HRP conjugated secondary antibody (Cat # L1645-1 ml, Sigma-Aldrich), diluted 1:1000 in 1% BSA in PBS, was added to each well and the plate was incubated for 30 minutes at room temperature followed by washing 3 times with 200 μl TBST. Finally, 50 μl TMB one-component reagent (Cat # TMBW-1000-01, BioFax) was added and allowed to develop for 2 minutes at room temperature. The reaction was immediately halted by the addition of 50 μl 0.5M H₂SO₄ and the absorbance at 450 nm was measured using an ELISA plate reader.

ELISA absorbance at 450 nm [A450]	Binder
1.36	B1
0.875	B2
2.35	B3
2.17	B4
0.506	B5
1.85	B6

The binders below were run against T1, recombinant human DLL4 (Cat# …) (assay: ELISA, DLL4 coated, Fab 25 nM).
Description: as §1

ELISA absorbance at 450 nm [A450]	Binder
0.335	B7
0.407	B8
0.316	B9
0.323	B10

These binders were tested against T1, recombinant human DLL4 (Cat# …) (assay: ELISA, DLL4 coated, Fab 5 nM).
Description: as §1

ELISA absorbance at 450 nm [A450]	Binder
1.75	B1
1.27	B2
2.48	B3
2.33	B4
0.724	B5
2.2	B6

Each binder was assayed against T1, recombinant human DLL4 (Cat# …) (assay: ELISA, DLL4 coated, Fab 3.125 nM).
Description: as §1

ELISA absorbance at 450 nm [A450]	Binder
0.095	B7
0.108	B8
0.093	B9
0.099	B10

What follows are binders tested against T1, recombinant human DLL4 (Cat# …) (assay: ELISA, DLL4 coated, Fab 6.25 nM).
Description: as §1

ELISA absorbance at 450 nm [A450]	Binder
0.142	B7
0.154	B8
0.125	B9
0.13	B10

These binders were tested against T1, recombinant human DLL4 (Cat# …) (assay: ELISA, DLL4 coated, Fab 10 nM).
Description: as §1

ELISA absorbance at 450 nm [A450]	Binder
1.36	B1
0.875	B2
2.35	B3
2.17	B4
0.506	B5
1.85	B6

The binders below were run against T1, recombinant human DLL4 (Cat# …) (assay: ELISA, DLL4 coated, Fab 0.63 nM).
Description: as §1

ELISA absorbance at 450 nm [A450]	Binder
0.419	B1
0.227	B2
1.37	B3
1.01	B4
0.115	B5
0.785	B6

The binders below were run against T1, recombinant human DLL4 (Cat# …) (assay: ELISA, DLL4 coated, Fab 50 nM).
Description: as §1

ELISA absorbance at 450 nm [A450]	Binder
0.546	B7
0.588	B8
0.51	B9
0.49	B10

Each binder was assayed against T1, recombinant human DLL4 (Cat# …) (assay: ELISA, DLL4 coated, Fab 100 nM).
Description: as §1

ELISA absorbance at 450 nm [A450]	Binder
0.791	B7
0.858	B8
0.814	B9
0.653	B10

These binders were tested against T1, recombinant human DLL4 (Cat# …) (assay: ELISA, DLL4 coated, Fab 1.3 nM).
Description: as §1

ELISA absorbance at 450 nm [A450]	Binder
0.143	B1
0.078	B2
0.653	B3
0.402	B4
0.055	B5
0.252	B6

What follows are binders tested against T1, recombinant human DLL4 (Cat# …) (assay: ELISA, DLL4 coated, Fab 0.31 nM).
Description: as §1

ELISA absorbance at 450 nm [A450]	Binder
1.63	B1
1.11	B2
2.4	B3
2.29	B4
0.648	B5
2.05	B6

These binders were tested against T1, recombinant human DLL4 (Cat# …) (assay: ELISA, DLL4 coated, Fab 12.5 nM).
Description: as §1

ELISA absorbance at 450 nm [A450]	Binder
0.215	B7
0.258	B8
0.198	B9
0.215	B10

The binders below were run against T1, recombinant human DLL4 (Cat# …) (assay: ELISA, DLL4 coated, Fab 20 nM).
Description: as §1

ELISA absorbance at 450 nm [A450]	Binder
1.63	B1
1.11	B2
2.4	B3
2.29	B4
0.648	B5
2.05	B6

What follows are binders tested against T1, recombinant human DLL4 (Cat# …) (assay: ELISA, DLL4 coated, Fab 2.5 nM).
Description: as §1

ELISA absorbance at 450 nm [A450]	Binder
1.17	B1
0.592	B2
2.15	B3
1.98	B4
0.358	B5
1.66	B6
